This assay concerns the target GFP-CLASP2 S1234A mutant (human). The assay is described as follows: co-IP.

As for “Polo-like kinase 1 (Plk1), endogenous (from UniProt P53350 1-603) (natural protein)”, the reduction of co-immunoprecipitated Plk1 relative to wild type is 40%.

The record behind these values is PMC3471233.
